Laboratory results from the nanobody polyreactivity screen of Harvey et al. (2022).

Assay: yeast display, Sf9 membrane polyspecificity reagent, FACS + sequencing; frameworks hold sequencing errors
Outline: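 Synthetic nanobody libraries on Saccharomyces cerevisiae BJ5465 were galactose-induced for 36–48 hours, stained 1 hour at 4 °C with 10% biotinylated, detergent-solubilized Sf9 membrane reagent and enriched on streptavidin microbeads. FACS then separated cells into low and high (top ~1%) gates by anti-HA (expression) and streptavidin (reagent binding) fluorescence. Genes were colony-PCR amplified, MiSeq 2 × 250 sequenced and CDR-length filtered. A clone's polyreactivity label is that of its gate of origin.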

| Sequence | polyreactivity (PSR sort gate) |
| --- | --- |
| QVQLVDSGGGLVQAGGSLRLSCAASGNIICGYARGRNIQAPGKEREMVASISQRGGITYYADSVKGRFTISRDKAKNTVYLEMNSLKAEDTEVYYCAKRGTYGWYGAYDYWGEGTQVTVSS | low polyreactivity |
| QVQLVDSGGGLVQAGGSLRLSCAASGNTFIYYAMGWYRQAPGKERELVAAITWSGGSTYYADSVKGRFTISRDNAKNTVYLQMNSLKPEDTAVYYCAKFTHNYYYWGQGTQVTVSS | high polyreactivity |
| QVQLVDSGGGLVQAGGSLRLSCAASGPIFKRYAMGWYRQAPGKERELVASITTSGDSTYYADSVKGRFTISRDNAKNTVYLQMNSLKPEDTAVYYCAGRSYSGRRYDYWGQGTQVTVSS | high polyreactivity |
| QVQLVDSGGGLVQAGGSLRLSCAASGRIFDYNAMGWYRQAPGKERELVAVITGTGGTTYYADSVKGRFTISRDNAKNTVYLQMNSVKPEDTAVYYCNADDYRLTSLYIPERYDYWGQGTQLTVSS | low polyreactivity |
| QVQLVDSGGGLVQAGGSLRLSCAASGRIFHGYAMGWYRLAPGKERELVAAISWRGDSTYYADSVKGRFTISRDNAKNTVYLQMNSLKPEDTAVYYCAAASRSWRDDYWGQGTQVTVSS | low polyreactivity |
| QVQLVDSGGGLVQAGGSLRLSCAASGRIFLVNALGGSRQAPGKERELVAAISYRSGRTYSADSVKGRFTISRDTAKNTVYLQMNSLIPEDTAVYYCAAYTNVADMDYWGQGTQVTVSS | high polyreactivity |
| QVQLVDSGGGLVQAGGSLRLSCAASGRIFYVYAMGWYRQATGKERQLVASIRYSGATTYYADSVKGRFTISLDNAKNTVYLQMNSLKPEDTAVYYCAADTLGTPAYRYEYWGQGTQVTVSS | low polyreactivity |
| QVQLVDSGGGLVQAGGSLRLSCAASGRTFDGYAMGWYRQAPGKERELVAAISRTGGSTYYADSVKGRFTISRENAKNTVYLLMTSLKPEDTAVYYCNAVTLSSTYGGHDYWGQGTQVTVSS | high polyreactivity |
| QVQLVDSGGGLVQAGGSLRLSCAASGRTFGIYAMGWYRQAPGKERELVAAIRWRDGSTYYADSVKGRFTISRDNAKNTVYLQMYSLKPEDNAVYYCAATSLVYVRGSYWKYGYWGQGTQVTVSS | high polyreactivity |
| QVQLVDSGGGLVQAGGSLRLSCAASGRTFLSMGWYRQAPGKERELVAAISRTNYADSVKGRFTISRDNAKNTVYLQMNSLKPEDTAVYYCAAVPKYGRYVRIGYPNDYWGQGTQVTVSS | low polyreactivity |
| QVQLVDSGGGLVQAGGSLRLSCAASGRTFPSYVMGWYRQAPGKERELVAAISWSGGSTSYADSVKGRFTISRDNAKNTVYLQMNSLKPEDTAVYYCNADRRPGGDYWGQGTQVTVSS | low polyreactivity |
| QVQLVDSGGGLVQAGGSLRLSCAASGRTFWYYDMGWYRQAPGKERELVATINNVGSTHYADSVKGRFTISRDNAKNTVYLQMNSLNPEDTAVYYCARASYGKMDYWGQGTQLTVSS | high polyreactivity |
| QVQLVDSGGGLVQAGGSLRLSCAASGRTFWYYTMGWYRQAPGKEREFVAAIRGSGTSTYYADSVKARFTISRDNEKNTVYLQMNSLKPEDTAVYYCAAESPVYHLVTYDYWGQGTQVTVSS | high polyreactivity |
| QVQLVDSGGGLVQAGGSLRLSCAASGRTFYTYAMGWYRVAPGKEWELVAAITGGGSTTYADSVKGRFTISRDNAKNTVYLQMNSLKPEDTEVYYCAALIYGPERVVDEYDYWGQGTQVTVSS | low polyreactivity |
| QVQLVDSGGGLVQAGGSLRLSCAASGRTVRYYTMGWYRQAPGKERELVAAISNAASTNYADSVKGRFTISRDNAKNTVYLQMNSLKPEDTAVYYCNAYLHYRAGHPRGYHNRYYYWGQGTQVTVSS | high polyreactivity |
| QVQLVDSGGGLVQAGGSLRLSCAASGSIFHANAMGWYRQAPGKERELVAVISQGGGSTYYADSVKGRFTISRDNAKNTVYLQMNSLKPEDTAVYYCAAYYYYSAYGDDYWGQGTQVTVSS | high polyreactivity |
| QVQLVDSGGGLVQAGGSLRLSCAASGSIFHVYAMGWYRQAPGKERELFAAIDRSGGSTYYADSVKGRFTISRDNAKNTVYLQMNSLKPEDTAVFYCAKDVLGGLITDGVGNDYWGQGTQLTVSS | low polyreactivity |
| QVQLVDSGGGLVQAGGSLRLSCAASGSIFPKNAMGWYRPAPGKERELVAAISSGGGGTYYADSVKGRFTISRDNAKNTVYLQMNSLKPEDTAVFYCNKRDGNGGNTKYDYWGQGTQVTVSS | low polyreactivity |
| QVQLVDSGGGLVQAGGSLRLSCAASGSIFRRNAMGWYRQAPGKERELVAAITRSGSGTSYADSVKGRFTISLDNAKNTVYLQMNSLKPEDTAVYYCNAAYVYGDQARGGYWGQGTQVTVSS | high polyreactivity |
| QVQLVDSGGGLVQAGGSLRLSCAASGSIFTDNAMGWYIQAPGKERDLVAAITGRGGNTYYADSLKGRFPISRDNAKNTVYLQMNSLKPEDTAVYYCAARIFRTRKPLGYWGQGTQVTVSS | high polyreactivity |
| QVQLVDSGGGLVQAGGSLRLSCAASGSIFVKYAMGWYRQAPGKERELVAAISWRGGSTYYADSVKGRFTISRDNAKNTVYLQMNSLKPEDTAVYYCAKYPGISGYNYWGQGTQVTVSS | high polyreactivity |
| QVQLVDSGGGLVQAGGSLRLSCAASGSIFWIYSMGWYRQAPGKERELVATISRGGSTYADSVKGRFTISRDNAKNTVYLQMNSLKPEDTPVYYCAARAFAGNQQAYYYWGQGTQVTVSS | high polyreactivity |
| QVQLVDSGGGLVQAGGSLRLSCAASGSIILVNAMGWYRQAPGKEREFVAAISTSSGSTYYADSVKGRFTISRDNAKNTVYLQMNSLKPEDTAVYYCAADEVYSRGIWPVEDDYWGQGSQVTVSS | low polyreactivity |
| QVQLVDSGGGLVQAGGSLRLSCAASGSILGGNAMGWYRQAPGKERELVAAITFSGGGTYYADSVKGRFTISRDHAKNTVYLQMNSLKPEDTAVYYCAADKDGYTYEFDYWGQGTQVTVSS | low polyreactivity |
| QVQLVDSGGGLVQAGGSLRLSCAASGSILNNYAMGWYRQARGKERELVAAISSSGGTNYADSVKGRFTISRDNAKNTVYLQMNSLKPEDTAVYYCYADVLDGGYDYWGQGTQVTESS | low polyreactivity |
| QVQLVDSGGGLVQAGGSLRLSCAASGSIYSSYAMGWYRQAPGKERELVASISSGGSKNYADSVKGRFTISRVNAKNTVYLQMNSLKPEDTAFYYCNVDLYNWRGDYTGYDYWGQGTQVTVSS | low polyreactivity |
| QVQLVDSGGGLVQAGGSLRLSCAASGSPFTTYAMGWYRQAPGTERELVAAISTNGGRTFYSDSVKGRFTISRDNAKNSVYLQMNSLKPEDTALYYCAAEYDLYAPGYYYWGEGTQVTVSS | low polyreactivity |
| QVQLVDSGGGLVQAGGSLRLSCAASGSTCYYYNMGWYRQSPWKERELVAAISFIGGSTYYADSVKGRFTISRDNAKYTVYLQMNSLTPEDTAVFYCAAEFYRWGSLSFSNDYWGQGTQVTVSS | low polyreactivity |
| QVQLVDSGGGLVQAGGSLRLSCAASGSTFLYHAMGWYRQAPGKERELLAAINSGTSTTYADSVKGRFTISRDNAKNRVYLQMNSLNPEDTAVYYCAADYYYVNYYGYYTLFDFDYWGQGTQVTVSS | low polyreactivity |
| QVQLVDSGGGLVQAGGSLRLSCAASGSTFLYYSMGWYTQAPGKERELVAVISWSGVSTYYADSVKGRFTISRDNAKNSVYLQMNSLKPEDTAVYYCNTGNHYIRTYGYWGQGTQVTVSW | low polyreactivity |
